# Experimental data reported in publication PMC10484726, “Archaeal Hel308 suppresses recombination through a catalytic switch that controls DNA annealing”.
# Where a chain is given by its changes, count along the chain named.
# T1: Mth-Hel308 Y586A (Methanothermobacter thermautotrophicus, UniProt O26901 1-690, Y586A)
# T1 sequence: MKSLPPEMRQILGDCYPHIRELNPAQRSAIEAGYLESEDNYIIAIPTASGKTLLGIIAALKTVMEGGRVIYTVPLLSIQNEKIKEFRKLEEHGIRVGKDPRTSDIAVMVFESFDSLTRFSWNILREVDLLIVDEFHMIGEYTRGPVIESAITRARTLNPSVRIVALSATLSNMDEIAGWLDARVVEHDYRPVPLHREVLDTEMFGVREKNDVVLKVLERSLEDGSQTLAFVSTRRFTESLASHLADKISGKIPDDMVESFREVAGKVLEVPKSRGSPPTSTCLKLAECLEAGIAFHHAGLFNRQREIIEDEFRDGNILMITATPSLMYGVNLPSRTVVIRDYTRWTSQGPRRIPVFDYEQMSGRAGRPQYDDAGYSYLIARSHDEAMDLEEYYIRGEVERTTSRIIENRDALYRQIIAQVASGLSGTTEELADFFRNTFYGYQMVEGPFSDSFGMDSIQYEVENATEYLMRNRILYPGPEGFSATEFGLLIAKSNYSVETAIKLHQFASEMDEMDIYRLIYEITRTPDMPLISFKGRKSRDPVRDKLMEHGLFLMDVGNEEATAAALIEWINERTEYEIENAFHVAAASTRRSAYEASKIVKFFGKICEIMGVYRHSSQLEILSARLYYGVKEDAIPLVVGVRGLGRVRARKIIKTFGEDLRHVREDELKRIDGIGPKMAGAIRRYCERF
# T2: Mth-Hel308 R591A (Methanothermobacter thermautotrophicus, UniProt O26901 1-690, R591A)
# T2 sequence: T1 sequence with A586Y, R591A
# T3: Mth-Hel308 F295A (Methanothermobacter thermautotrophicus, UniProt O26901 1-690, F295A)
# T3 sequence: T1 sequence with F295A, A586Y
# B1: forked DNA substrate (dsDNA)
# DNA 1: GTCGGATCCTCTAGACAGCTCCATGATCACTGGCACTGGTAGAATTCGGC
# DNA 2: CAACGTCATAGACGATTACATTGCTACATGGAGCTGTCTAGAGGATCCGA
# Tests used:
# Conditions in all cases: protein: recombinant; tags: N-terminal His6; label: Cy5 (end label); fork
# Mth-Hel308 Y586A = molecular target: T1, Mth-Hel308 Y586A; assay: EMSA; 5 mM EDTA; 25 nM DNA; similar to wild type; EMSA: 20 mM Tris-HCl pH 7.5, 100 ug/ml BSA, 7% glycerol, 25 mM DTT, 5 mM EDTA, 25 nM Cy5-DNA; 5% TBE gel; no added salt stated; 37 C 10 min stated for duplex DNA reactions
# Mth-Hel308 R591A = molecular target: T2, Mth-Hel308 R591A; assay: EMSA; 5 mM EDTA; 25 nM DNA; EMSA: 20 mM Tris-HCl pH 7.5, 100 ug/ml BSA, 7% glycerol, 25 mM DTT, 5 mM EDTA, 25 nM Cy5-DNA; 5% TBE gel; no added salt stated; 37 C 10 min stated for duplex DNA reactions
# Mth-Hel308 F295A = molecular target: T3, Mth-Hel308 F295A; assay: as above
binder,measurement,setting,value
B1,binding result,Mth-Hel308 Y586A,binds
same,binding result,Mth-Hel308 R591A,binds
same,Kd,Mth-Hel308 F295A,19.3 nM
